Results published in patent publication US20210095028A1 (NANJING LEGEND BIOTECH, published 2021).

T1: human TIGIT over-expressed on cells (human, UniProt Q495A1 22-244)
T1 sequence: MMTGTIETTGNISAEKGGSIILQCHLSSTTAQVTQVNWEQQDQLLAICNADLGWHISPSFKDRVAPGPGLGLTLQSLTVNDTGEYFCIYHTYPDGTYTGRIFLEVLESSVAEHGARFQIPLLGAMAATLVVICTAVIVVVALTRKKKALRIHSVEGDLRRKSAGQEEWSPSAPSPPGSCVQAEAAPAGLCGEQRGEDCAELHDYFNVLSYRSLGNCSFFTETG

T2: Human TIGIT protein with HIS tag (human, UniProt Q495A1 22-141)
T2 construct: A soluble analyte is probably only the extracellular part; also called human TIGIT recombinant protein; not shown: HIS tag
T2 sequence: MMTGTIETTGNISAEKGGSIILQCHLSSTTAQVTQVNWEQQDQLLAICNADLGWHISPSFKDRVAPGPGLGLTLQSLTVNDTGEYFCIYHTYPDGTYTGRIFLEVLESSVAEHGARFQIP


Columns and labels:
[1] = target: T1, human TIGIT over-expressed on cells; test: cell-based or functional assay
[2] = target: T1, human TIGIT over-expressed on cells; test: FACS, CHO-K1 cells over-expressing human TIGIT
Description: (§1) Binding affinities of the chimeric anti-human TIGIT monoclonal antibodies and the humanized anti-human TIGIT monoclonal antibodies to human or cynomolgus TIGIT over-expressed on CHO-K1 cells were determined using a fluorescence-activated cell sorting (FACS)-based assay. […] The mixture was equilibrated for 30 minutes at room temperature and washed three times with FACS buffer (PBS containing 1% BSA). iFluor labeled goat anti-mouse IgG as the secondary antibody was added and incubated at room temperature for 45 min. Finally, the cells were washed 3 time with PBS, and the signal was read by FACS BD Calibur. Data was analyzed with PRISM™ (GraphPad Software, San Diego, Calif.) using non-linear regression and EC₅₀ values were calculated.

[3] = target: T2, Human TIGIT protein with HIS tag; test: SPR Biacore T200; antibody Fc-captured, TIGIT-His analyte
Description: Binding kinetics of the chimeric anti-human TIGIT monoclonal antibodies and the humanized anti-human TIGIT monoclonal antibodies to human TIGIT were determined using a Surface Plasmon Resonance (SPR) biosensor, BIACORE® T200 (GE Healthcare). Different concentrations of the chimeric anti-human TIGIT monoclonal antibodies or humanized anti-human TIGIT monoclonal antibodies were prepared starting at 50 nM with a 3-fold serial dilution. Each chimeric anti-human TIGIT monoclonal antibody or each humanized anti-human TIGIT monoclonal antibody was immobilized on the sensor chip through the Fc capture method. Human TIGIT protein with a HIS tag was used as the analyte. The dissociation (kd) and association (kₐ) rate constants were obtained using the BIACORE® T200 evaluation software. The apparent equilibrium dissociation constants (KD) were calculated from the ratio of kd over kₐ.

[4] = target: T1, human TIGIT over-expressed on cells; test: competition FACS, CHO cells expressing human TIGIT; competitor PVR recombinant protein (column headed EC50, text says IC50)
Description: (§2) To assess the competitive binding on human TIGIT between the chimeric anti-human TIGIT monoclonal antibodies or the humanized anti-human TIGIT monoclonal antibodies and PVR, the chimeric anti-human TIGIT monoclonal antibody or the humanized anti-human TIGIT monoclonal antibody samples were prepared (starting at 300 nM, ≤3-fold serial dilution with 10 concentrations). CHO cells expressing human TIGIT were dissociated from adherent culture flasks and mixed with varying concentrations of each chimeric anti-human TIGIT monoclonal antibody or the humanized anti-human TIGIT monoclonal antibody and 5 μg/ml […] fusion protein having a biotin label. The mixture was equilibrated for 30 minutes at room temperature and washed three times with FACS buffer (PBS containing 1% BSA). PE/Cy5 Streptavidin secondary antibody was then added to the mixtures and incubated for 15 minutes at room temperature. Subsequently, the cells were washed with FACS buffer and analyzed by flow cytometry. Data was analyzed with PRISM™ (GraphPad Software, San Diego, Calif.) using non-linear regression, and IC₅₀ values were calculated (FIG. 7 and Table 13).

[5] = target: T1, human TIGIT over-expressed on cells; test: competition FACS, CHO cells expressing human TIGIT; competitor PVR recombinant protein
Description: as §2

[6] = target: T3, cynomolgus TIGIT over-expressed on CHO-K1 cells (cynomolgus, UniProt A0A7N9I9V4 89-312); test: FACS, CHO-K1 cells over-expressing cynomolgus TIGIT
T3 construct: whole, on cells; also called CHO-K1/cynomolgus TIGIT cells
Description: as §1

T3 sequence (A0A7N9I9V4 entry or part of it): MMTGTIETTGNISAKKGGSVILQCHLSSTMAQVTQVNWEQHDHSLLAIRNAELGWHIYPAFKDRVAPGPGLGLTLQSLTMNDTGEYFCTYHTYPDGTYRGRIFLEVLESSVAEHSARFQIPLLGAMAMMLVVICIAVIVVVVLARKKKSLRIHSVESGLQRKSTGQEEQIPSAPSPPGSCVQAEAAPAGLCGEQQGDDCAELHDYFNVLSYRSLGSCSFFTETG

IL-2 secretion in T cell activation, Bottom (best-fit) [1] | IL-2 secretion in T cell activation, EC50 [1] [nM] | IL-2 secretion in T cell activation, Top (best-fit) [1] | Bottom (best-fit) [2] | EC50 [2] [nM] | Top (best-fit) [2] | Kd [3] [nM] | koff [3] [s⁻¹] | kon [3] [M⁻¹ s⁻¹] | IC50 [4] [nM] | Bottom (best-fit) [5] | Top (best-fit) [5] | Bottom (best-fit) [6] | EC50 [6] [nM] | Top (best-fit) [6] | Binder
209 | 0.63 | 467 | 1530 | 0.43 | 24700 | 0.17 | 0.0001 | 630000 | 0.35 | 201 | 508 | 5530 | 0.91 | 29200 | 64G1E9B4VH1.M1_VL1.M1 (antibody, human IgG1, V domains shown, Humanized antibody, variable domains fused with the constant region of human IgG1; also called 64G1VH1.M1_VL1.M1) VH: EVQLVQSGAEVKKPGSSVKVSCKASGYTFTEHVIHWVRQAPGQGLEWMGGFNPNHGGTIYNQIFRGRVTITADKSTSTAYMELSSLRSEDTAVYYCARAAKLLFAMDYWGQGTTVTVSS VL: DIQMTQSPSSLSASVGDRVTITCRASQHVSNAVVWYQQKPGKAPKLLIYSPSYRFTGVPSRFSGSGSGTDFTLTISSLQPEDFATYYCQQHYSTPWTFGGGTKVEIK
204 | 0.66 | 462 | 3600 | 0.47 | 23400 | 0.07 | 6.4e-05 | 910000 | 0.51 | 197 | 772 | 3920 | 1.33 | 25600 | 64G1E9B4 chimeric (antibody, V domains shown, also called 64G1 Chimeric) VH: EVQLQQSGPELVKPGASVKISCKTSGYTFTEHVIHWVKQSHGKSLEWIGGFNPNHDGTIYNQIFRGKATLTVDKSSSTAYMELRSLTSEDSAVYFCTRAAKLLFAMDYWGQGTSVTVSS VL: DIVMTQSHKFMSTSIGDRVSITCKASQHVSNAVVWYQQKPGQSPKLLIYSPSYRFTGVPDRFTGSGSGTDFTFTISSVQAEDLAVYYCQQHYSTPWTFGGGTKLEIK
217 | 5.21 | 435 | 4110 | 1.15 | 25200 | 0.57 | 0.00035 | 610000 | 1.29 | 150 | 755 | 2830 | 2.85 | 29800 | 100C4E7D11VH1_VL1 (antibody, V domains shown, Humanized antibody, variable domains fused with the constant region of human IgG1; also called 100C4VH1_VL1) VH: EVQLVESGGGLVKPGGSLRLSCAASGFTFSFYTMSWVRQAPGKGLEWVSTISSGGGSTYYSDSVKGRFTISRDNAKNSLYLQMNSLRAEDTAVYYCARSLPVDYWGQGTTVTVSS VL: EIVLTQSPGTLSLSPGERATLSCTASSSVSSTYLHWYQQKPGQAPRLLIYSTSNLASGIPDRFSGSGSGTDFTLTISRLEPEDFAVYYCHLYHHSPYTFGGGTKVEIK
247 | 2.14 | 419 | 4160 | 0.58 | 25600 | 0.17 | 0.00016 | 910000 | 0.49 | 170 | 678 | 4880 | 1.03 | 23700 | 100C4E7D11 chimeric (antibody, V domains shown, also called 100C4 Chimeric) VH: EVMLVESGGGLVKPGGSLKLSCAASGFTFSFYTMSWVRQTPEKRLEWVATISSGGGSTYYSDSVKGRFTISRDNAKNNLYLQMTSLRSEDTALYYCSRSLPVDYWGQGTTLTVSS VL: QIVLTQSPAIMSASLGERVTMTCTASSSVSSTYLHWYQQKPGSSPKLWIYSTSNLASGVPARFSGSGSGTSYSLTISSMEAEDAATYYCHLYHHSPYTFGGGTKLEIK
